1 molecule from US20180360946A1 (ALBERT EINSTEIN COLLEGE OF MEDICINE, published 2018) can be followed below.

The target of experiment [1] is T1, mAb 2H12.
T1 construct: also called prototypic AB-loop mAb 2H12
Description: ELISA, purified DIII. (In general: In an ELISA, binding on a coated surface is turned into a signal by an enzyme label.)

Experiment [2] addresses murine mAb 4E11. Nature of the experiment: ELISA, purified DIII.
In experiment [3] the target is T1, mAb 2H12. Description: biolayer interferometry.
For experiment [4], the target named is murine mAb 4E11. Nature of the experiment: biolayer interferometry. For orientation: Biolayer interferometry detects binding as a change in optical thickness at a sensor tip.
A further experiment deals with T2, mAb 3H5-1.
T2 construct: also called prototypic FG-loop mAb 3H5-1
Description: ELISA.

In experiment [5] the target is T1, mAb 2H12. Nature of the experiment: ELISA.
For experiment [6], the target named is murine mAb 4E11. Description: ELISA.
Experiment [7] deals with murine mAb 4E11. Description: phage ELISA, phage-displayed DIII titrated on immobilized 4E11. Also on record: unit not given here.

B1: WT DENV2 EDIII (other)
chain: GMSYSMCTGKFKIVKEIAETQHGTIVIRVQYEGDGSPCKIPFEIMDLEKRHVLGRLITVNPIVTEKDSPVNIEAEPPFGDSYIIIGVEPGQLKLNWFKKGSSIGQ
notes: also called WT DENV2 DIII; DENV2 EDIII WT
For B1, the EC50 (in general, the concentration at which the effect is half-maximal) was 0.00032 µM with mAb 2H12 [1]; 0.0024 µM with murine mAb 4E11 [2]; approximately 2000 µM in the experiment with mAb 3H5-1; 0.0003 µM in the experiment with mAb 2H12 [5]; 0.002 µM with murine mAb 4E11 [6]. For the same molecule, the Kd (in general, a measure of binding affinity in units of concentration) was 0.03 nM with mAb 2H12 [3] and approximately 4 pM with murine mAb 4E11 [4]. The “EC50 (read off the curve)” value with murine mAb 4E11 [7] was approximately 5e+08.
